Measured values: PMC7612376, “Structural basis of meiotic chromosome synaptic elongation through hierarchical fibrous assembly of SYCE2-TEX12” (Nature structural & molecular biology, 2021)

Tests used:
Assay in all cases: SEC-MALS; co-purified complexes at >1 mg/ml on Superdex 200 Increase 10/300 GL in 20 mM Tris pH 8.0, 150 mM KCl, 2 mM DTT; in Fig. 1 core at 200 uM and full-length at 100 uM (4 mg/ml)
[1] = target: SYCE2-TEX12 core FFV (TEX12 F102A F109A V116A), 2:2 building block (human) (UniProt Q6PIF2)
[2] = target: T1, SYCE2 core ΔS2C (amino-acids 57-154) (human, UniProt Q6PIF2 57-154); conditions: both partners purified
T1 construct: SYCE2, human, ΔS2C, residues 57-154; source: E. coli BL21 (DE3), co-expressed with TEX12, purified (Ni-NTA, amylose, ion exchange, SEC); not shown: MBP, N-terminal, cleaved
T1 sequence (looked up): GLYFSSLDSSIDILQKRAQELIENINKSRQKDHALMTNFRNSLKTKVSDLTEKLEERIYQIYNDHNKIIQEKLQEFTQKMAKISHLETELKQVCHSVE

[3] = target: T2, SYCE2 core V149E V153E V156E L160E (human, UniProt Q6PIF2 57-165, V149E | V153E | V156E | L160E); conditions: both partners purified
T2 construct: SYCE2, human, core, residues 57-165, with V149E, V153E, V156E and L160E; The four mutations are read as combined in one construct (one mass is printed for it); also called V149E, V153E, V156E and L160E mutant; S2C hydrophobic core mutant; source: E. coli BL21 (DE3), co-expressed with TEX12, purified (Ni-NTA, amylose, ion exchange, SEC); not shown: MBP, N-terminal, cleaved
T2 sequence (looked up): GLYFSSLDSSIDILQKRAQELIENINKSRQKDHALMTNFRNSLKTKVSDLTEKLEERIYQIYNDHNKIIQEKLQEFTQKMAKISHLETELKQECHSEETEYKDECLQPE

[4] = target: T3, SYCE2 core H89E Y115E (human, UniProt Q6PIF2 57-165, H89E | Y115E); conditions: both partners purified
T3 construct: SYCE2, human, core, residues 57-165, with H89E and Y115E; source: E. coli BL21 (DE3), co-expressed with TEX12, purified (Ni-NTA, amylose, ion exchange, SEC); not shown: MBP, N-terminal, cleaved
T3 sequence (looked up): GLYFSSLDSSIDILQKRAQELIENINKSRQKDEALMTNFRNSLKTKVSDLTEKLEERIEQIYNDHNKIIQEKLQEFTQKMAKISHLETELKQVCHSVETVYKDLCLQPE

[5] = target: T4, SYCE2 core (amino-acids 57-165) (human, UniProt Q6PIF2 57-165); conditions: both partners purified
T4 construct: SYCE2, human, core, residues 57-165; also called SYCE2 structural core; source: E. coli BL21 (DE3), co-expressed with TEX12, purified (Ni-NTA, amylose, ion exchange, SEC); not shown: MBP, N-terminal, cleaved
T4 sequence (looked up): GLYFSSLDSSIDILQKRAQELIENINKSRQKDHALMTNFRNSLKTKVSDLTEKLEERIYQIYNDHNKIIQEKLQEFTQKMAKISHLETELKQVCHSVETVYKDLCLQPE

[6] = target: T5, MBP-SYCE2 core ΔS2C (57-154) fusion protein (human, UniProt Q6PIF2 57-154); conditions: both partners purified
T5 construct: SYCE2, human, ΔS2C, residues 57-154; also called ΔS2C MBP-fusion, SYCE2 chain; source: E. coli BL21 (DE3), co-expressed with TEX12, purified; not shown: MBP, N-terminal, kept
T5 sequence (looked up): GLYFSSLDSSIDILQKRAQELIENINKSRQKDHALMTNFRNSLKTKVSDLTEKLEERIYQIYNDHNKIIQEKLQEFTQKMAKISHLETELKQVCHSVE

[7] = target: T6, MBP-SYCE2 core (57-165) fusion protein (human, UniProt Q6PIF2 57-165); conditions: both partners purified
T6 construct: SYCE2, human, core, residues 57-165; also called SYCE2-TEX12 core MBP-fusion, SYCE2 chain; source: E. coli BL21 (DE3), co-expressed with TEX12, purified; not shown: MBP, N-terminal, kept
T6 sequence (looked up): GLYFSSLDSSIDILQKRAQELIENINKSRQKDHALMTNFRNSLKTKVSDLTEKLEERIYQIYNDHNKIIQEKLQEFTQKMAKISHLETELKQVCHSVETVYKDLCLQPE

## SYCE2-TEX12 core FFV (TEX12 F102A F109A V116A), 2:2 building block (from UniProt Q6PIF2 57-165; Q9BXU0 49-123) (complex)
[1]
  stoichiometry N (2:2 building blocks): 2

B1: TEX12 core (amino-acids 49-123) (domain or fragment, human, UniProt Q9BXU0 49-123, looked up)
chain: KDEALEKDLNDVSKEINLMLSTYAKLLSERAAVDASYIDEIDELFKEANAIENFLIQKREFLRQRFTVIANTLHR
notes: TEX12, human, core, residues 49-123; also called TEX12 structural core; source: E. coli BL21 (DE3), co-expressed with SYCE2, purified (Ni-NTA, amylose, ion exchange, SEC); not shown: His6, N-terminal, cleaved
[2]
  stoichiometry N: 1 TEX12 per SYCE2 (2:2)
[3]
  stoichiometry N: 1 TEX12 per SYCE2 (2:2)
[4]
  stoichiometry N: 1 TEX12 per SYCE2 (2:2)
[5]
  stoichiometry N: 1 TEX12 per SYCE2 (4:4)

B2: TEX12 core (49-123) of the SYCE2-TEX12 core MBP-fusion proteins (domain or fragment, human, UniProt Q9BXU0 49-123, looked up)
chain: KDEALEKDLNDVSKEINLMLSTYAKLLSERAAVDASYIDEIDELFKEANAIENFLIQKREFLRQRFTVIANTLHR
notes: TEX12, human, core, residues 49-123; also called TEX12 core in the MBP-fusion complexes; source: E. coli BL21 (DE3), co-expressed with MBP-SYCE2, purified
[6]
  stoichiometry N: 1 TEX12 per SYCE2 (2:2)
[7]
  stoichiometry N: 1 TEX12 per SYCE2 (4:4)
